Drawing on PMC12158487, “Tracing the aggregation pathway of the scaffold protein DISC1: Structural implications for chronic mental illnesses” (Journal of Structural Biology: X, 2025), this text covers dH and stoichiometry N for five molecules.

Numbering of substitutions follows the chain as printed. Numbers in names are those of the source. Ends that are not written are not given here.

For data set [1], the target named is DISC1 C-region L807-frameshift, His6 fusion (human) (UniProt Q9NRI5). Kind of data set: ITC; 10 µM His-tagged protein alone in the 200 µL cell, 20 °C, stirred at 300 rpm; heat flow of self-association followed in real time, peak area integrated.
Data set [2] concerns the molecule itself. The data set is described as above.
For data set [3], the target named is T1, DISC1 C-region (WT), His6 fusion (human), Q9NRI5.
T1 chain: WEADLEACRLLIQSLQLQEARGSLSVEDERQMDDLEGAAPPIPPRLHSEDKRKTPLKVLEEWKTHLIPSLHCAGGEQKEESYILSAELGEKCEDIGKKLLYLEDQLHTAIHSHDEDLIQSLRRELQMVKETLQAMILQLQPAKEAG
Description: ITC; 10 µM His-tagged WT-C-region alone in the cell, 30 °C; heat flow of self-association followed in real time, peak area integrated. As to conditions: remark: other sources report otherwise. For orientation: In ITC the heat of successive injections is recorded.

Data set [4] addresses T1, DISC1 C-region (WT), His6 fusion …. Kind of data set: ITC; 10 µM His-tagged protein alone in the 200 µL cell, 20 °C, stirred at 300 rpm; heat flow of self-association followed in real time, peak area integrated. Particulars: remark: other sources report otherwise.
For data set [5] the target is unchanged. Kind of data set: dynamic light scattering; 10 µM protein, 20 °C, 500 µL sample, centrifuged at 21,000 x g before measurement; apparent hydrodynamic radii followed over time. As to conditions: remark: other sources report otherwise.
Data set [6] deals with the molecule itself. Kind of data set: ITC; one-week-old sample of S704C, 10 µM protein alone in the cell, 20 °C; heat flow of self-association followed in real time, peak area integrated.

In the case of “DISC1 C-region L807-frameshift, His6 fusion (from UniProt Q9NRI5 691-807) (domain or fragment)”, in data set [1], the dH was -4440 kJ/mol.

B1: DISC1 β-core (717-761), His6 fusion (domain or fragment, human, UniProt Q9NRI5 717-761, looked up)
chain: EDERQMDDLEGAAPPIPPRLHSEDKRKTPLKVLEEWKTHLIPSLH
modifications: also: His6 fusion, end not given here
notes: 717-761, numbered in the context of the full-length protein; also called β-core peptide; source: E. coli BL21 (DE3) pLysE T1R, purified (Co2+-NTA)
In the case of B1, in data set [2], the dH was -3530 kJ/mol.

B2: DISC1 C-region (WT), His6 fusion, Q9NRI5 691-836 (domain or fragment)
chain: T1 chain
Turning to B2, the dH in data set [3] is -1100 kJ/mol; in data set [4] it was -2290 kJ/mol. Further, the stoichiometry N (commonly the number of molecules, sites or subunits per partner or assembly) in data set [5] came to 4.

B3: DISC1 C-region S704C, His6 fusion (domain or fragment, human, UniProt Q9NRI5 691-836, looked up)
chain: T1 chain with S14C
notes: Disrupted in schizophrenia 1 (DISC1), human, C-region, res; 691-836, numbered in the context of the full-length protein, with S704C; also called S704C C-region; source: E. coli BL21 (DE3) pLysE T1R, purified (Co2+-NTA)
As to B3, the dH was -3640 kJ/mol in data set [6] and -1000 kJ/mol in data set [2].

B4: DISC1 C-region S713E, His6 fusion (domain or fragment, human, UniProt Q9NRI5 691-836, looked up)
chain: T1 chain with S23E
notes: Disrupted in schizophrenia 1 (DISC1), human, C-region, res; 691-836, numbered in the context of the full-length protein, with S713E; in the cited work it may be a phosphomimetic made by people (surmise); also called S713E C-region variant; source: E. coli BL21 (DE3) pLysE T1R, purified (Co2+-NTA)
For the molecule B4, the dH in data set [2] was -2140 kJ/mol.
